In publication PMC314469, “Protein Interaction Networks by Proteome Peptide Scanning” (PLoS Biology, 2004):

T1: amphyphisin SH3 (AMPH_HUMAN), P49418
T1 chain: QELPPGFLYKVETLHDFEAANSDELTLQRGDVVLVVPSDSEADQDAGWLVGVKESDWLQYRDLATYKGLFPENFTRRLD


Experiments:
[1] = target: endophilin SH3 (SH3G2_HUMAN), Q99962; experiment: SPOT array
[2] = target: T1, amphyphisin SH3 (AMPH_HUMAN), P49418; experiment: SPOT array

| Binder | normalised SPOT signal, Boehringer light units (BLU); mean over the file's lines of this peptide [1] | normalised SPOT signal, Boehringer light units (BLU); mean over the file's lines of this peptide [2] |
| --- | --- | --- |
| SLMTPRRPLSTSEK [Q9H5L8 147-160] | 1480 | 70 |
| SISFPTRPPLQAQI [Q8TDT3 61-75] | 162 | 61.2 |
| SSELIERPSKKDGF [Q9H0X9 173-186] | 71.5 | 120 |
| SLHGPRRPQPGASG [O95428 745-758] | 256 | 33.5 |
| SIHPPGRPPAVRGP [P50570 773-787] | 2730 | 340 |
| SLSFIARPGKVSQL [P21128 321-334] | 146 | 152 |
| SLLDFIRPLKISSD [Q9UPM8 1026-1039] | 0 | 219 |
| SPAPPHKPPNTREN [P51816 884-898] | 78.5 | 48.2 |
| SPDSLSRPRRTVFT [Q9P217 544-557] | 90.9 | 482 |
| SPDKFKRPTPPPSP [Q16204 419-432] | 35.9 | 15.7 |
| SPSVPAKPPLAEFE [Q15742 478-492] | 67.1 | 47.9 |
| SLEVIRRPETKVLI [Q9BYK8 558-571] | 65.4 | 22.1 |
| SLASPRRPLLSDFA [Q96RJ6 21-34] | 1690 | 78.6 |
| SPGPPYRPPSQRLR [Q8WVQ2 69-83] | 5840 | 547 |
| SLALPRRPQNRDSI [Q9HCG4 261-274] | 866 | 96.2 |
| SLVLPSRPPIGLPP [Q9UHI4 161-175] | 72.4 | 40.4 |
| SMFFIRRPTLDINW [O94848 219-232] | 744 | 58.5 |
| SLPRPRRPLPTQQQ [Q9P0U4 231-244] | 3100 | 509 |
| SLKRPKRPLFNFAL [Q96RW7 70-83] | 2170 | 169 |
| SNPVPPRPPPPSLA [Q9UBP0 16-30] | 11600 | 143 |
| SIVEFFRPPKEVHL [Q96RL7 600-613] | 98.5 | 164 |

| Binder | normalised SPOT signal, Boehringer light units (BLU); mean over the file's lines of this peptide [1] | normalised SPOT signal, Boehringer light units (BLU); mean over the file's lines of this peptide [2] |
| --- | --- | --- |
| SLRVPKRPIINTPV [Q9HCU4 2269-2282] | 2480 | 53.7 |
| SPGFPARPGRGRPY [Q9UQ90 30-43] | 754 | 568 |
| SITQLRRPSQLLYP [Q96AN7 126-139] | 36.3 | 9.2 |
| SLRKLKRPPPPPRR [Q9P206 440-453] | 199 | 78.1 |
| SKTPPQRPPPQGGP | 1450 | 127 |
| SPKSPGRPWKSVSE [P01042 611-624] | 117 | 228 |
| SLPLPKRPRRGAAP [O14746 231-244] | 9620 | 5540 |
| SARGPLRPPVRSPA [P30084 9-23] | 1950 | 3810 |
| SKASLSRPGRRPLG [Q9C0H4 580-593] | 53.5 | 226 |
| SAVGPNRPPTVSQP [Q9UFD8 131-145] | 969 | 51.4 |
| SPIKPKRPFVESNV [Q9ULS2 141-154] | 2110 | 120 |
| SMGPPSKPPDEEHR [Q9NZ56 228-242] | 44.5 | 49.6 |
| SLKIFRRPRKLFMQ [Q99776 220-233] | 74.5 | 88.1 |
| SINLLSRPERGWEG [Q14801 17-30] | 97.2 | 0 |
| SPARPRRPHASRDG [Q9H8S7 107-120] | 8710 | 13800 |
| SPGVLRRPRRRPAA [Q9Y469 13-26] | 190 | 2430 |
| SNTPPPRPPKPSHL [Q8WWW8 303-317] | 18000 | 2120 |
| SLPSPSKPPIQQPT [Q9Y6V0 260-274] | 94.9 | 55.1 |
| SKTPPQRPPPQGSL | 2380 | 193 |
| SPEAPRRPKQRPAP [O00294 24-37] | 319 | 62.1 |
| SIWDPRRPLNTTEG [P09848 409-422] | 41.8 | 10.9 |
